From patent publication US20230272011A1 (AVACTA LIFE SCIENCES, published 2023)

Key:
human serum albumin [1] = biological target: T1, human serum albumin (human, UniProt P02768 25-609); assay: SPR (Biacore), immobilised HSA, Affimer analyte
T1 construct: mature; Bought protein; biotinylated in the Octet and HTRF assays; also called HSA; HuSA
Protocol: Affinities for mouse, human, and cynomolgus serum were also measured at pH 7.4 for four (4) AFFIMER® binders using surface plasmon resonance (SPR) (FIG. 5, Table 5). […] A concentration titration of AFFIMER® monomers was run as analyte at a flow rate of 30 μl/min or 60 μl/min. Fc2-1, Fc3-1 and Fc4-1 kinetic data was blank subtracted and fit to a 1:1 Langmuir binding model (BIAcore Evalution software; GE) to calculate KD values. […]

human serum albumin [2] = biological target: T1, human serum albumin; assay: Biacore, immobilised HSA, pH 7.4
Protocol: Affinities for mouse, human, and cynomolgus serum were also measured at pH 7.4 for four (4) AFFIMER® binders using surface plasmon resonance (SPR) (FIG. 5, Table 5). […] A concentration titration of AFFIMER® monomers was run as analyte at a flow rate of 30 μl/min or 60 μl/min. Fc2-1, Fc3-1 and Fc4-1 kinetic data was blank subtracted and fit to a 1:1 Langmuir binding model (BIAcore Evalution software; GE) to calculate KD values.
The AFFIMER® polypeptides were produced and purified from E. coli as described in Example 3.

canine serum albumin [3] = biological target: T2, canine serum albumin (canine, UniProt P49822 25-608); assay: binding ELISA on coated albumin, pH 6.0, panel 'Canine SA Binding at pH 6.0'
T2 sequence (P49822 25-608 limits assumed): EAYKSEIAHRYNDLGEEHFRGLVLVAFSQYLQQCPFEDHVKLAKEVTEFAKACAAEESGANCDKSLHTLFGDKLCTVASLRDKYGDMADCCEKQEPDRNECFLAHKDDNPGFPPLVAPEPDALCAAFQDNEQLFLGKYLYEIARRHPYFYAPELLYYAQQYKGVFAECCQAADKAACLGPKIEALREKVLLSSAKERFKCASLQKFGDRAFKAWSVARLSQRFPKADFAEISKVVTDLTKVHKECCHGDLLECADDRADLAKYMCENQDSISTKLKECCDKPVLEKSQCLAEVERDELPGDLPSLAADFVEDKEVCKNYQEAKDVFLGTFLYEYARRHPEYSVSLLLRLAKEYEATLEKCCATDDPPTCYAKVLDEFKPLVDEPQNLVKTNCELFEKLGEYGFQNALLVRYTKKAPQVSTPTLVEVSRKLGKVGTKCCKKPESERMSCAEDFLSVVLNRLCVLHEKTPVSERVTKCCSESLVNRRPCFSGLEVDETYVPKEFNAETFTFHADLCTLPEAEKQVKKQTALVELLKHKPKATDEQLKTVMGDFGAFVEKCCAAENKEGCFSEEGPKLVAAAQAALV

cynomolgus serum albumin [4] = biological target: T3, cynomolgus serum albumin (cynomolgus); assay: binding ELISA on coated albumin, pH 6.0, panel 'CSA Binding at pH 6.0'
T3 construct: also called CSA; cyno serum albumin
T3 sequence (A2V9Z4 25-608): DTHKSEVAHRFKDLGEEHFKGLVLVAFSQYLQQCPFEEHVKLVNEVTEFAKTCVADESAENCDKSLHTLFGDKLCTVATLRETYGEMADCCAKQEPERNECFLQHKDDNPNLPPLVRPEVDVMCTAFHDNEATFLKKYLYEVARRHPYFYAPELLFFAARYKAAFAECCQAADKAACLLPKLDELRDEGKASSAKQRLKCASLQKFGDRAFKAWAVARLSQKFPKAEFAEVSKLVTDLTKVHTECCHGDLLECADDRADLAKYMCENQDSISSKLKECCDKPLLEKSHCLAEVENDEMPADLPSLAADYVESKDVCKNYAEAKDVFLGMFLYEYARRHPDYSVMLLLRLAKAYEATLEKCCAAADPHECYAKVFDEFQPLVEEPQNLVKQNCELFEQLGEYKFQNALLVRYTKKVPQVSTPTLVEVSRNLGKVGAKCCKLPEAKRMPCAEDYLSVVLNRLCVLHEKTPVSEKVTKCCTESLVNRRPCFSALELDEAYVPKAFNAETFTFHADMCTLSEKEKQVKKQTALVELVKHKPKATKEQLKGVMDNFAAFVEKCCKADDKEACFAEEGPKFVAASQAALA
Protocol: Briefly, ELISA was performed as follow:
Human (Sigma-Aldrich); Cynomolgus and Mouse (Abcam); Equine (Abcam); Canine (Abcam); Mouse (Sigma-Aldrich); Rabbit (Sigma-Aldrich); Porcine (Sigma-Aldrich);, and Rat (Sigma-Aldrich) serum albumin were coated overnight on 96 well plates (Corning Costar) at 1 μg/ml in PBS at the appropriate pH (pH 6.0 or 7.4). Plates were saturated using 5% Casein (Sigma-Aldrich) buffer in PBS. […] Plates were then washed and AFFIMER® proteins were detected using a biotinylated polyclonal antibody anti-Cystatin (R&D System) for 90 minutes. After washing, streptavidin-HRP (Thermo Fisher Scientific) was added and incubated for 30 minutes.

human serum albumin [5] = biological target: T1, human serum albumin; assay: binding ELISA on coated HSA, pH 7.4
Protocol: After saturation with 5% PBS Casein pH 7.5, plates were washed and a dilution of AFFIMER® polypeptides or controls were incubated for 90 minutes. Plates were then washed, and a biotinylated polyclonal antibody anti-cystatin A (R&D Systems) was added for 1 hour. Plates were washed and AFFIMER® polypeptides were detected using streptavidin-HRP. After a last washing step, TMB was added for the development of the experiment and the plates were read at 450 nm.

human serum albumin [6] = biological target: T1, human serum albumin; assay: binding ELISA, coated albumin, pH 7.4
mouse serum albumin [7] = biological target: T4, mouse serum albumin (mouse, UniProt P07724 25-608); assay: binding ELISA, coated albumin, pH 7.4
T4 construct: also called MSA
T4 sequence (P07724 25-608 limits assumed): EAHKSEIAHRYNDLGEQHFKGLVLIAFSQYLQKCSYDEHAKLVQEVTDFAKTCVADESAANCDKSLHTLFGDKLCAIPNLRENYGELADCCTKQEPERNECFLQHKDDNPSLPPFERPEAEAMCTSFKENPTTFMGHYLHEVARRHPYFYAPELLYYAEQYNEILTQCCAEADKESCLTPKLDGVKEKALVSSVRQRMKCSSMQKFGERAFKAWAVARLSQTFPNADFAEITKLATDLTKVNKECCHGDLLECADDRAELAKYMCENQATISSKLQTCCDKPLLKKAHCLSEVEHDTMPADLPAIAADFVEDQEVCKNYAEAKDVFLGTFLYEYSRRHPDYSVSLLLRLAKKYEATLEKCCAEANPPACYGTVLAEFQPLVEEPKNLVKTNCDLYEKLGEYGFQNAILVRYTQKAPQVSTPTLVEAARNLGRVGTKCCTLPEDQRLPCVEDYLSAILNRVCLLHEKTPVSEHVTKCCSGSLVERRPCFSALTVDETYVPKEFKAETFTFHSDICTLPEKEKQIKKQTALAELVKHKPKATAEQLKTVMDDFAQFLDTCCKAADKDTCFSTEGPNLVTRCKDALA

rat serum albumin = rat serum albumin (rat, UniProt P02770 25-608); assay: binding ELISA, coated albumin, pH 7.4
Chain of rat serum albumin (P02770 25-608 limits assumed): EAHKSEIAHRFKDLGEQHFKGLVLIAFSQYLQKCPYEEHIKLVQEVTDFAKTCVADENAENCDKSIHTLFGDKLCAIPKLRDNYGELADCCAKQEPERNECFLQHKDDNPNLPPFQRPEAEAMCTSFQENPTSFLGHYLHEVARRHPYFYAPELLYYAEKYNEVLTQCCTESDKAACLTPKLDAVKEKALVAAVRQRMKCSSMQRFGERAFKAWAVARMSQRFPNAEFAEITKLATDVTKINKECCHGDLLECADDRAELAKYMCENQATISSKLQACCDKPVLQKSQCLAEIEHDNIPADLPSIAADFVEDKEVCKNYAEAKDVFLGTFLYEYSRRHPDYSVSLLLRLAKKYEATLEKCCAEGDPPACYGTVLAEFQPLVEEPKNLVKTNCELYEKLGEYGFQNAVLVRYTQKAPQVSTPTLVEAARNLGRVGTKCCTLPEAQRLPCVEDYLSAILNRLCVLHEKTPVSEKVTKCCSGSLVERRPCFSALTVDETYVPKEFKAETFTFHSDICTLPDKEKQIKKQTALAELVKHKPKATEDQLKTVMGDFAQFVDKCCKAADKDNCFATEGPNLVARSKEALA

equine serum albumin = equine serum albumin (equine, UniProt P35747 25-607); assay: binding ELISA, coated albumin, pH 7.4
Chain of equine serum albumin (P35747 25-607 limits assumed): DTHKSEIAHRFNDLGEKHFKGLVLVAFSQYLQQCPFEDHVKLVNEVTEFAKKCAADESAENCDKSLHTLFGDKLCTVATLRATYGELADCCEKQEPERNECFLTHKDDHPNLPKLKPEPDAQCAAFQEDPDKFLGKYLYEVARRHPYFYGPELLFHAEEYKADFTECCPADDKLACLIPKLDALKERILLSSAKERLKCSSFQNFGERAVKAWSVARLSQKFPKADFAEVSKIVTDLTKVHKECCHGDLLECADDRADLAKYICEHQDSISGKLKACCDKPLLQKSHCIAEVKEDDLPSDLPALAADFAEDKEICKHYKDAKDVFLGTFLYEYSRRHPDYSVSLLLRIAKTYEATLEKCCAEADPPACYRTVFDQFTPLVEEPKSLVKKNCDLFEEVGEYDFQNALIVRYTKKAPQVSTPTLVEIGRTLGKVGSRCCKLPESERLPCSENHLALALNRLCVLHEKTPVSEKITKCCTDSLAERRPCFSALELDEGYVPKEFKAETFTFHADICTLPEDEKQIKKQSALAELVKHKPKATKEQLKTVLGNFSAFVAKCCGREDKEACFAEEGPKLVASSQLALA

rabbit serum albumin = rabbit serum albumin (rabbit, UniProt P49065 25-608); assay: binding ELISA, coated albumin, pH 7.4
Chain of rabbit serum albumin (P49065 25-608 limits assumed): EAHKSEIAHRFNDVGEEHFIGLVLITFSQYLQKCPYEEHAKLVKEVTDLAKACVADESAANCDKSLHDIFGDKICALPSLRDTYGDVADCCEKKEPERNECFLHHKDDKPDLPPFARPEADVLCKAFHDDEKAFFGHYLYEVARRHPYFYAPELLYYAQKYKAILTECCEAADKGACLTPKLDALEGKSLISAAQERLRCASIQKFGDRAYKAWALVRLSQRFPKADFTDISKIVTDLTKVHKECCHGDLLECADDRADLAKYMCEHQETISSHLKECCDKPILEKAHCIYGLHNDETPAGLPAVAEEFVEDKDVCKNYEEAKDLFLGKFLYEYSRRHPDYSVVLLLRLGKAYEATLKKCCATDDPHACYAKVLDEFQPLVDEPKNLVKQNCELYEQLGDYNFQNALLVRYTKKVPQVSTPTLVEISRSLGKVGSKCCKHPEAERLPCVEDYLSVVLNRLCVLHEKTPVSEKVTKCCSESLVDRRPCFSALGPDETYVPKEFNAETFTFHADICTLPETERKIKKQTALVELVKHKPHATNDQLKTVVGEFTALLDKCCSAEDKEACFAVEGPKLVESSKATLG

porcine serum albumin = porcine serum albumin (porcine, UniProt P08835 25-607); assay: binding ELISA, coated albumin, pH 7.4
Chain of porcine serum albumin (P08835 25-607 limits assumed): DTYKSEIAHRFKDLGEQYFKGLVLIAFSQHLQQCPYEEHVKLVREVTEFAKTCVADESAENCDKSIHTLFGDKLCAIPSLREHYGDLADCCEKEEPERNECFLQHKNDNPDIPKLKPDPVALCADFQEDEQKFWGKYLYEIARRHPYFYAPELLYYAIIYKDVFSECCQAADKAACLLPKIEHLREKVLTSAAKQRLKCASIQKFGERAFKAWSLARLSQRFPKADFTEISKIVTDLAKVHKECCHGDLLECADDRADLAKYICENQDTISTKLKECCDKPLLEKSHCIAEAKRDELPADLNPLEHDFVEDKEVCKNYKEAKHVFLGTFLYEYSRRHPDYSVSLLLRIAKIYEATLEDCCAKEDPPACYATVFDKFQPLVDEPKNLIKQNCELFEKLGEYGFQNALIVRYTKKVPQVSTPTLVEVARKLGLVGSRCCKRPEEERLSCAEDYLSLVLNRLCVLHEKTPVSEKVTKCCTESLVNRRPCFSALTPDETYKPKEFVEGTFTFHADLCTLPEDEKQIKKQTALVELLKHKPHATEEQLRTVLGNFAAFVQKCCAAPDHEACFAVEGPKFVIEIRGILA

cynomolgus serum albumin [8] = biological target: T3, cynomolgus serum albumin; assay: binding ELISA, coated albumin, pH 7.4
canine serum albumin [9] = biological target: T2, canine serum albumin; assay: binding ELISA, coated albumin, pH 7.4
human serum albumin [10] = biological target: T1, human serum albumin; assay: Octet biolayer interferometry, biotinylated albumin on SA sensors, pH 7.4
Procedure, shortened: (§1)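 First, biotinylated albumin (1 μg/ml, 600 s) was immobilised on SA tips in PBS-T with 1% casein at pH 6.0 or 7.4. Next, serially diluted AFFIMER® polypeptide associated for 300 s, then dissociated for 600 s, at 25° C and 1000 rpm. Finally, sensors were regenerated with 10 mM glycine pH 1.5.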

mouse serum albumin [11] = biological target: T4, mouse serum albumin; assay: as above
Procedure, shortened: as §1

cynomolgus serum albumin [12] = biological target: T3, cynomolgus serum albumin; assay: as above
Procedure, shortened: as §1

human serum albumin [13] = biological target: T1, human serum albumin; assay: BLI (Octet), biotinylated albumin on SA sensor, pH 7.4
Procedure, shortened: as §1

mouse serum albumin [14] = biological target: T4, mouse serum albumin; assay: as above
Procedure, shortened: as §1

cynomolgus serum albumin [15] = biological target: T3, cynomolgus serum albumin; assay: as above
Procedure, shortened: as §1

B1: HSA-41 (designed binder)
chain: MIPRGLSEAKPATPEIQEIVDKVKPQLEEKTNETYGKLEAVQYKTQVLANFFQRRWPGSTNYYIKVRAGDNKYMHLKVFNGPWKFRNTDRGADRVLTGYQVDKNKDDELTGFHHHHHH
notes: also called HSA-41 parent; HSA-41 AH parent
With B1 the Kd (human serum albumin [1]) was 5.13 nM, the koff (human serum albumin [1]) was 0.00435 s⁻¹ and the kon (human serum albumin [1]) was 848000 M⁻¹ s⁻¹. The Kd (human serum albumin [2]) was 2.84 nM, the koff (human serum albumin [2]) was 0.00347 s⁻¹ and the kon (human serum albumin [2]) was 1.22e+06 M⁻¹ s⁻¹. For the same binder, the “EC50 (read off the curve)” value (canine serum albumin [3]) was ~2 nM, the “EC50 (read off the curve)” value (cynomolgus serum albumin [4]) was ~3 nM and the EC50 (human serum albumin [5]) was 0.04 nM. It also gave an EC50 (human serum albumin [6]) of 0.05 nM, an EC50 (mouse serum albumin [7]) of 42.5 nM and an EC50 (rat serum albumin) of 4.18 nM. It also gave an EC50 (equine serum albumin) of 150 nM, an EC50 (rabbit serum albumin) of 381 nM and an EC50 (porcine serum albumin) of 51.7 nM. It also gave an EC50 (cynomolgus serum albumin [8]) of 12.8 nM, an EC50 (canine serum albumin [9]) of 21.5 nM and a koff (human serum albumin [10]) of 0.00198 s⁻¹. For the same binder, the kon (human serum albumin [10]) was 379000 M⁻¹ s⁻¹, the koff (mouse serum albumin [11]) was 0.0318 s⁻¹ and the kon (mouse serum albumin [11]) was 663000 M⁻¹ s⁻¹. It also gave a koff (cynomolgus serum albumin [12]) of 0.0177 s⁻¹, a kon (cynomolgus serum albumin [12]) of 248000 M⁻¹ s⁻¹ and a Kd (human serum albumin [13]) of 5.2 nM. The Kd (mouse serum albumin [14]) was 47.9 nM and the Kd (cynomolgus serum albumin [15]) was 71.5 nM.
